Data on 5 substances can be found in publication doi:10.1101/2021.03.20.21254037.

The experiment addresses truncated human ACE2 ectodomain (residues 19-613), AviTagged, biotinylated (human) (UniProt Q9BYF1). Put plainly: BLI. On the technique in general: Biolayer interferometry detects binding as a change in optical thickness at a sensor tip.
Substance “SARS-CoV-2 RBD natural variant N439K (from UniProt P0DTC2 319-541) (domain or fragment)” displayed a t½ (complex half-time) of 1.85 min.

Substance “SARS-CoV-2 RBD natural variant N501Y (from UniProt P0DTC2 319-541) (domain or fragment)” displayed a t½ (complex half-time) of 5.49 min.

Regarding “SARS-CoV-2 RBD natural variant Q493L (from UniProt P0DTC2 319-541) (domain or fragment)”, the t½ (complex half-time) was 3.52 min.

In turn, “SARS-CoV-2 RBD natural variant S477N (from UniProt P0DTC2 319-541) (domain or fragment)” came in with a t½ (complex half-time) of 2.68 min.

“SARS-CoV-2 RBD wild type (WHU1 isolate, amino acids 319-541) (from UniProt P0DTC2 319-541) (domain or fragment)” yielded a t½ (complex half-time) of 1.4 min.
